Positions count from the first letter of the chain named. Numbers in names are those of the source. Where “and” joins values, the source holds several entries; their conditions need not be identical. Equal values may be shown once.
Assays:
mFc-cNKG2D = target: T1, mFc-cNKG2D (cynomolgus monkey, UniProt P61252 73-216); test: SPR Biacore 37 C; mFc-tagged cyno NKG2D dimer, TriNKET as analyte; kinetics fit
T1 construct: extracellular domain; Made in house (Dragonfly Tx); also called recombinant cyno NKG2D extracellular domain (ECD); mFc-tagged cyno NKG2D dimer; not shown: mouse Fc tag
T1 sequence (looked up): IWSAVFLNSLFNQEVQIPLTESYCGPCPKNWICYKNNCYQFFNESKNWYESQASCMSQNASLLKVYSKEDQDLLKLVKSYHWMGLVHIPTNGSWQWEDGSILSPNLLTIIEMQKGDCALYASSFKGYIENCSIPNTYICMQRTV

[1] = target: T2, ECDHDC1 (HuProt array JHU25034.P240F11) (human); test: HuProt human proteome microarray, AB0089 at 1 µg/ml
T2 construct: Name as printed; may be a misprint of a gene name
T2 sequence (Q9NTX5 whole entry): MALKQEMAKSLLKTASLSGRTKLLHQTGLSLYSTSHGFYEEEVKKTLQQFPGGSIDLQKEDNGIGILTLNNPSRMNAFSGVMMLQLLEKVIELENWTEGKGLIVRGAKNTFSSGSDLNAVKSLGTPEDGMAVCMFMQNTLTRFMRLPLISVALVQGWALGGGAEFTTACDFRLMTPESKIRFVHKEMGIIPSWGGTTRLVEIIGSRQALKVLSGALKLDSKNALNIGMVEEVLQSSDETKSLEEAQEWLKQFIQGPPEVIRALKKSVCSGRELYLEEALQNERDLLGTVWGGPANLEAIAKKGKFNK
Source text: (§1) An array consisting of 22,000 full-length human proteins are expressed in S. cerevisiae yeast, purified, and are subsequently printed in duplicate on a microarray glass slide that allows thousands of interactions to be profiled in a high-throughput manner. […] S score is the difference of Z score of a given protein and the one rank next to it.

[2] = target: BC089418 (HuProt array JHU16002.P168E09) (human); test: as above
Source text: as §1

[3] = target: T3, Human CLEC12A-His (recombinant, K244 WT) (human, UniProt Q5QGZ9 65-265); test: as above
T3 construct: Made in house (Dragonfly Tx); also called hCLEC12A; hCLEC12A-His; not shown: His tag
T3 sequence: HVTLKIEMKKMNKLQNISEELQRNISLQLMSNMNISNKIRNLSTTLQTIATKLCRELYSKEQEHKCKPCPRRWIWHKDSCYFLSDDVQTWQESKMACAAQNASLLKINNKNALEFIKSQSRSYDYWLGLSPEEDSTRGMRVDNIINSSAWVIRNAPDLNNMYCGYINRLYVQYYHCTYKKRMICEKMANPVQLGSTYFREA

[4] = target: T3, Human CLEC12A-His (recombinant, K244 WT); test: SPR, two-state fit (kd1); control sample
Procedure: Briefly, human Fc specific antibodies were covalently immobilized at a density ˜8000-10000 resonance units (RU) on carboxy methyl dextran matrix of a CM5 biosensor chip via amine-coupling chemistry to create an anti-hFc IgG chip. […] Association was monitored for 300 seconds and dissociation was monitored for 600 seconds. Surfaces were regenerated between cycles with three pulses of 10 mM glycine-HCl, pH 1.7 injected for 20 seconds at 100 μl/min. HBS-EP+ (1×) with 0.1 mg/ml BSA was used as running buffer throughout the experiment. Experiments were performed at physiological temperature of 37° C. To obtain kinetic rate constants and overall binding affinity, double-referenced data were fit to a two-state kinetic model using Biacore 8K Insight Evaluation software (Cytiva).

Human CD32b = target: T4, Human CD32b (human, UniProt P31994 46-217, limits assumed, biotinylated); test: SPR, steady state fit; average for AB0192
T4 construct: Bought recombinant receptor; also called hFcγRIIb
T4 sequence (looked up): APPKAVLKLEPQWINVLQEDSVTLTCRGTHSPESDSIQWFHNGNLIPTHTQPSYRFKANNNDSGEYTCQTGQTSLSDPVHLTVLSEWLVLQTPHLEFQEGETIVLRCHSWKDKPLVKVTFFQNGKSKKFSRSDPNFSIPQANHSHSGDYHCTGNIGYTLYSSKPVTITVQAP

Human FcRn = target: T5, Human FcRn (human, UniProt P55899 24-297; P61769 21-119); test: SPR, steady state fit; average for AB0192
T5 construct: Bought recombinant receptor; also called hFcRn
T5 sequence (P55899 24-297 limits assumed, chain 1 of 2): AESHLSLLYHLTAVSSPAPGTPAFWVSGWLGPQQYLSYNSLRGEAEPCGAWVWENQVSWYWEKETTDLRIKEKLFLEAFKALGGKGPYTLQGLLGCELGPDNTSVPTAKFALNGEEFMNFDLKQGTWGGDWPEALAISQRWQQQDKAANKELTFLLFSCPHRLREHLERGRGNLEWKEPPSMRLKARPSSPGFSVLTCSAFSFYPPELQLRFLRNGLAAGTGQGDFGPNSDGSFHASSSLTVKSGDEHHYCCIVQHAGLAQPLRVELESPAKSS
T5 sequence (P61769 21-119 limits assumed, chain 2 of 2): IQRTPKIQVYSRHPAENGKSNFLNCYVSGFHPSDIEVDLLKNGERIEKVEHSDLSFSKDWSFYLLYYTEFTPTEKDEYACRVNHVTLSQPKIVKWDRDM

Cynomolgus FcRn = target: T6, Cynomolgus FcRn (cynomolgus monkey, UniProt Q8SPV9 24-297; Q8SPW0 21-119); test: SPR, steady state fit; average for AB0192
T6 construct: Bought recombinant receptor; also called cFcRn; Cyno FcRn
T6 sequence (Q8SPV9 24-297 limits assumed, chain 1 of 2): as the sequence (P55899 24-297 limits assumed, chain 1 of 2) above, with N39D, E44Q, G99S, S189G, S190N, L217M, S269T counted along it
T6 sequence (Q8SPW0 21-119 limits assumed, chain 2 of 2): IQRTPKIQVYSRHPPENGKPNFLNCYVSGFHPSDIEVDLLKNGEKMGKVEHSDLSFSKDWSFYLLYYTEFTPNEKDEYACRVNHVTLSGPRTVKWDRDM

[5] = target: T7, recombinant human CLEC12A-His (human, UniProt Q5QGZ9 65-265); test: SPR 37C, average
T7 construct: also called hCLEC12A-His; hCLEC12A
T7 sequence: T3 sequence

B1: F3'-1602 TriNKET (bispecific antibody, human IgG1, kappa)
chain: QLQLQESGPGLVKPSETLSLTCTVSGFSLTNYGLHWIRQPPGKCLEWIGVIWSGGKTDYNPSLKSRVTISKDTSKNQFSLKLSSVQAADTAVYYCAKYDYDDSLDYWGQGTLVTVSSGGGGSGGGGSGGGGSGGGGSDIQMTQSPSSLSASVGDRVTITCHASQNINFWLSWYQQKPGKAPKLLIYEASNLHTGVPSRFSGSGSGTRFTLTISSLQPEDIATYYCQQSHSYPLTFGCGTKLEIKGSDKTHTCPPCPAPELLGGPSVFLFPPKPKDTLMISRTPEVTCVVVDVSHEDPEVKFNWYVDGVEVHNAKTKPREEQYNSTYRVVSVLTVLHQDWLNGKEYKCKVSNKALPAPIEKTISKAKGQPREPRVYTLPPCRDELTKNQVSLTCLVKGFYPSDIAVEWESNGQPENNYKTTPPVLVSDGSFTLYSKLTVDKSRWQQGNVFSCSVMHEALHNHYTQKSLSLSPG
heavy: EVQLVESGGGLVKPGGSLRLSCAASGFTFSSYSMNWVRQAPGKGLEWVSSISSSSSYIYYADSVKGRFTISRDNAKNSLYLQMNSLRAEDTAVYYCARGAPIGAAAGWFDPWGQGTLVTVSSASTKGPSVFPLAPSSKSTSGGTAALGCLVKDYFPEPVTVSWNSGALTSGVHTFPAVLQSSGLYSLSSVVTVPSSSLGTQTYICNVNHKPSNTKVDKKVEPKSCDKTHTCPPCPAPELLGGPSVFLFPPKPKDTLMISRTPEVTCVVVDVSHEDPEVKFNWYVDGVEVHNAKTKPREEQYNSTYRVVSVLTVLHQDWLNGKEYKCKVSNKALPAPIEKTISKAKGQPREPQVCTLPPSRDELTENQVSLTCLVKGFYPSDIAVEWESNGQPENNYKTTPPVLDSDGSFFLYSWLTVDKSRWQQGNVFSCSVMHEALHNHYTQKSLSLSPG
light: DIQMTQSPSSVSASVGDRVTITCRASQGISSWLAWYQQKPGKAPKLLIYAASSLQSGVPSRFSGSGSGTDFTLTISSLQPEDFATYYCQQGVSFPRTFGGGTKVEIKRTVAAPSVFIFPPSDEQLKSGTASVVCLLNNFYPREAKVQWKVDNALQSGNSQESVTEQDSKDSTYSLSSTLTLSKADYEKHKVYACEVTHQGLSSPVTKSFNRGEC
notes: Trispecific F3' format: CLEC12A scFv-Fc paired with NKG2D Fab-Fc; Stressed and control samples of the stability studies are the same molecule; also called AB0237
- Kd (mFc-cNKG2D): 831 nM and 825 nM and 931 nM and 769 nM

B2: AB0089 TriNKET (bispecific antibody, human IgG1, kappa)
chain: B1 chain with S53V, K56A, K71V, Y98G, D101G, S103T, R207D, I220F
heavy: B1 heavy
light: B1 light
notes: F3' format heterodimer of three chains; human IgG1 Fc with EW-RVT and Y349C/S354C mutations; also called AB0089 Lot AB0089-002; CLEC12A TriNKET AB0089
- Z score [1]: 3.75
- Z score [2]: 3.7
- Z score [3]: 151
- koff [4]: 0.0476 s⁻¹

B3: AB0192 TriNKET (other)
chain: EVQLVESGGGVVQPGGSLRLSCAASGFTFNAFGMHWVRQAPGKCLEWVAFISSGSTSIYYANTVKGRFTISRDNSKNTLYLQMNSLRAEDTAVYYCARDGYPTGGAMDYWGQGTSVTVSSGGGGSGGGGSGGGGSGGGGSDIQMTQSPSSLSASVGDRVTITCKASQDIYNYLSWFQQKPGKAPKPLIYRANILVSGVPSRFSGSGSGQDYTFTISSLQPEDIATYYCLQFDAFPFTFGCGTKLEIKGSDKTHTCPPCPAPELLGGPSVFLFPPKPKDTLMISRTPEVTCVVVDVSHEDPEVKFNWYVDGVEVHNAKTKPREEQYNSTYRVVSVLTVLHQDWLNGKEYKCKVSNKALPAPIEKTISKAKGQPREPRVYTLPPCRDELTKNQVSLTCLVKGFYPSDIAVEWESNGQPENNYKTTPPVLVSDGSFTLYSKLTVDKSRWQQGNVFSCSVMHEALHNHYTQKSLSLSPG
heavy: B1 heavy
light: B1 light
notes: the condition stands under assay; also called AB0192 Lot AB0192-005
- Kd (Human CD32b): 6.1 µM
- Kd (Human FcRn): 1500 nM
- Kd (Cynomolgus FcRn): 1400 nM

B4: F3'-1602 TriNKET (other)
chain: B1 chain
heavy: B1 heavy
light: B1 light
notes: CLEC12A scFv-Fc, NKG2D A49MI Fab-Fc, human IgG1 Fc; also called AB0237
- Kd [5]: 0.57 nM
- koff [5]: 0.000494 s⁻¹
- kon [5]: 844000 M⁻¹ s⁻¹

Reference: patent US20220119534A1 (DRAGONFLY THERAPEUTICS, published 2022)
